Reference: publication PMC1540706

What was measured:
[1] = target: human β2-appendage (700–937) used for ITC (human) (UniProt P63010); experiment: ITC; VP-ITC; 100 mM HEPES, 50 mM NaCl, 2 mM DTT pH 7.4 at 10 °C; peptides or proteins injected from the syringe into the cell
epsinR peptide = experiment: ITC; conditions: stoichiometry (1.3)

Sequence of human β2-appendage (700–937) used for ITC (P63010 whole entry Y888V, looked up, tested part not stated): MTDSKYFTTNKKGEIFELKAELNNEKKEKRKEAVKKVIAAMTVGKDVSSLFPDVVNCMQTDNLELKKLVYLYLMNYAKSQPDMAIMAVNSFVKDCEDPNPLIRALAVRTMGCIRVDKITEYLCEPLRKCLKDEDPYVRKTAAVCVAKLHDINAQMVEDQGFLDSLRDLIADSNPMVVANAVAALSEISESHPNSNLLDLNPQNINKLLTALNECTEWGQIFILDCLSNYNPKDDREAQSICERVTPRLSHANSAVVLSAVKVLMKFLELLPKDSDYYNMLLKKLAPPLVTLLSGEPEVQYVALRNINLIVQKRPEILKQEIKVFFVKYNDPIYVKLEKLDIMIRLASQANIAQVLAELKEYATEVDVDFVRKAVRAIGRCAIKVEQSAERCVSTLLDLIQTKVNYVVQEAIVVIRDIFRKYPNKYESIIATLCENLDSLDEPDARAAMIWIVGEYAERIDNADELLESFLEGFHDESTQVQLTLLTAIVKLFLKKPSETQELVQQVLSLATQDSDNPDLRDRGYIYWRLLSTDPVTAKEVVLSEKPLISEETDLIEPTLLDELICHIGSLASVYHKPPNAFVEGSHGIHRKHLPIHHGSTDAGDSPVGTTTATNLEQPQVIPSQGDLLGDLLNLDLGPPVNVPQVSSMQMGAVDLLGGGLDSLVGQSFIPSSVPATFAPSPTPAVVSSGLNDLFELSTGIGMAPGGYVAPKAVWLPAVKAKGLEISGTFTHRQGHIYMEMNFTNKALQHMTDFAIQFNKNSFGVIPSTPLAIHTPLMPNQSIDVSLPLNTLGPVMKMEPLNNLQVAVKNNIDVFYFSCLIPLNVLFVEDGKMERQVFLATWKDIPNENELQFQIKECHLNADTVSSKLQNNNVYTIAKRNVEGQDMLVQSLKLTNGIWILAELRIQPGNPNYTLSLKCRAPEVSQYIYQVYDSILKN
Sequence of human β2-appendage (700–937) used for ITC (human) (P63010 700-937): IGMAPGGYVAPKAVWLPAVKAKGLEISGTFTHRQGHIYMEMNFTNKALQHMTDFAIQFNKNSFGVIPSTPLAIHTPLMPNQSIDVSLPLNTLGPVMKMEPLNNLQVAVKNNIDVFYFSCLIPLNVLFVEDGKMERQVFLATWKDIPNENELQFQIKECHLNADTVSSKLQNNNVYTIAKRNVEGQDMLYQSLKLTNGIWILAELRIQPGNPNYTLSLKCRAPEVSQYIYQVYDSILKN

Kd [1] | Kd (epsinR peptide) | Substance
80 µM |  | epsinR peptide
 | 77 µM | human β2-appendage (700–937) used for ITC (from UniProt P63010) Y888V
